Patent US20050021237A1, “Method and apparatus for evaluating new chemical entities” (priority 2003, published 2005)

Tests used:
[1] = Phase I studies (Clinical Investigator's Brochure); type: in vivo, humans; conditions: from Phase I doses ranging from 12-48 μg/kg/hour (48/12)
From the text: (§1) In the absence of more accurate TI data, this value is used in the example. LY203638 is classified as a cardiovascular agent (since there are no prior data for hematologic agents and it is not antimicrobial). The limitations in acquiring appropriate data for LY203638 underscores the requirement to have unfettered access to the NCE's data in order to optimize Pharminator's predictive accuracy.

[2] = Toxicology studies in primates; type: in vivo; conditions: Phase I and primate toxicology data taken together
From the text: as §1

[3] = primates; cited from earlier work

Substance: Recombinant human activated protein C [LY203638]
- therapeutic index (TI) [1]: at least 4
- therapeutic index (TI) [2]: approximately 4
- dose at which toxic effects observed [3]: 8 mg/m^2/hour
- no-observed-adverse-effect level [3]: 2 mg/m^2/hour
